Drawing on publication PMC3049928, this text covers Km, kcat and kcat/Km for one protein.

Substrate in the data set: Nc1ncnc2c1ncn2[C@@H]1O[C@H](COP(=O)(O)O)[C@@H](OP(=O)(O)O)[C@H]1O
Put plainly: purified protein. It counts as biochemical, Homo sapiens. The following applies: varied pNPS, no added alcohol, 50 mM phosphate pH 6.2, 37 °C.

B1: SULT1A1 (human phenol sulfotransferase, human sulfotransferase 1A1) (Homo sapiens) (protein)
chain: MELIQDTSRPPLEYVKGVPLIKYFAEALGPLQSFQARPDDLLISTYPKSGTTWVSQILDMIYQGGDLEKCHRAPIFMRVPFLEFKAPGIPSGMETLKDTPAPRLLKTHLPLALLPQTLLDQKVKVVYVARNAKDVAVSYYHFYHMAKVHPEPGTWDSFLEKFMVGEVSYGSWYQHVQEWWELSRTHPVLYLFYEDMKENPKREIQKILEFVGRSLPEETVDFVVQHTSFKEMKKNPMTNYTTVPQEFMDHSISPFMRKGMAGDWKTTFTVAQNERFDADYAEKMAGCSLSFRSEL
What is called Km is the substrate concentration at which the rate is half of its maximum. The term kcat denotes the number of substrate molecules converted per active site and unit of time at saturation. A word on the kcat/Km: it is the turnover number divided by the Michaelis constant. B1: the Km amounted to 34 ± 6 µM, the kcat came out at 0.000633 ± 0.000117 s⁻¹ and the catalytic efficiency (kcat/Km) was 18.3 ± 3.33 M⁻¹ s⁻¹.
